Assay results reported in publication doi:10.64898/2025.12.21.695763.

Target: Mycobacterium thermoresistibile (Mth) Class Ib ribonucleotide reductase catalytic α-subunit (NrdE), purified alone (M. thermoresistibile)
Experiment: SEC-MALS

How did the stoichiometry N turn out when “Mycobacterium thermoresistibile (Mth) Class Ib ribonucleotide reductase catalytic α-subunit (NrdE), purified alone (enzyme)” was run?
Its stoichiometry N is 2.
